Numbering of substitutions follows the chain as printed. Numbers in names are those of the source.
B1: V331P: ASNp amylosucrase single mutant (protein, UniProt Q9ZEU2 1-636, looked up, variant V331P)
Amylosucrase: MLTPTQQVGLILQYLKTRILDIYTPEQRAGIEKSEDWRQFSRRMDTHFPKLMNELDSVYGNNEALLPMLEMLLAQAWQSYSQRNSSLKDIDIARENNPDWILSNKQVGGVCYVDLFAGDLKGLKDKIPYFQELGLTYLHLMPLFKCPEGKSDGGYAVSSYRDVNPALGTIGDLREVIAALHEAGISAVVDFIFNHTSNEHEWAQRCAAGDPLFDNFYYIFPDRRMPDQYDRTLREIFPDQHPGGFSQLEDGRWVWTTFNSFQWDLNYSNPWVFRAMAGEMLFLANLGVDILRMDAVAFIWKQMGTSCENLPQAHALIRAFNAVMRIAAPAPFFKSEAIVHPDQVVQYIGQDECQIGYNPLQMALLWNTLATREVNLLHQALTYRHNLPEHTAWVNYVRSHDDIGWTFADEDAAYLGISGYDHRQFLNRFFVNRFDGSFARGVPFQYNPSTGDCRVSGTAAALVGLAQDDPHAVDRIKLLYSIALSTGGLPLIYLGDEVGTLNDDDWSQDSNKSDDSRWAHRPRYNEALYAQRNDPSTAAGQIYQGLRHMIAVRQSNPRFDGGRLVTFNTNNKHIIGYIRNNALLAFGNFSEYPQTVTAHTLQAMPFKAHDLIGGKTVSLNQDLTLQPYQVMWLEIA
B2: V331Q: ASNp amylosucrase single mutant (protein, UniProt Q9ZEU2 1-636, looked up, variant V331Q)
Amylosucrase: B1 Amylosucrase with P331Q
B3: V331R: ASNp amylosucrase single mutant (protein, UniProt Q9ZEU2 1-636, looked up, variant V331R)
Amylosucrase: B1 Amylosucrase with P331R
B4: V331S: ASNp amylosucrase single mutant (protein, UniProt Q9ZEU2 1-636, looked up, variant V331S)
Amylosucrase: B1 Amylosucrase with P331S
B5: V331T: ASNp amylosucrase single mutant (protein, UniProt Q9ZEU2 1-636, looked up, variant V331T)
Amylosucrase: B1 Amylosucrase with P331T
B6: V331W: ASNp amylosucrase single mutant (protein, UniProt Q9ZEU2 1-636, looked up, variant V331W)
Amylosucrase: B1 Amylosucrase with P331W
B7: V331C: ASNp amylosucrase single mutant (protein, UniProt Q9ZEU2 1-636, looked up, variant V331C)
Amylosucrase: B1 Amylosucrase with P331C
B8: V331Y: ASNp amylosucrase single mutant (protein, UniProt Q9ZEU2 1-636, looked up, variant V331Y)
Amylosucrase: B1 Amylosucrase with P331Y
B9: V331D: ASNp amylosucrase single mutant (protein, UniProt Q9ZEU2 1-636, looked up, variant V331D)
Amylosucrase: B1 Amylosucrase with P331D
B10: V331E: ASNp amylosucrase single mutant (protein, UniProt Q9ZEU2 1-636, looked up, variant V331E)
Amylosucrase: B1 Amylosucrase with P331E
B11: V331F: ASNp amylosucrase single mutant (protein, UniProt Q9ZEU2 1-636, looked up, variant V331F)
Amylosucrase: B1 Amylosucrase with P331F
B12: V331G: ASNp amylosucrase single mutant (protein, UniProt Q9ZEU2 1-636, looked up, variant V331G)
Amylosucrase: B1 Amylosucrase with P331G
B13: V331H: ASNp amylosucrase single mutant (protein, UniProt Q9ZEU2 1-636, looked up, variant V331H)
Amylosucrase: B1 Amylosucrase with P331H
B14: V331I: ASNp amylosucrase single mutant (protein, UniProt Q9ZEU2 1-636, looked up, variant V331I)
Amylosucrase: B1 Amylosucrase with P331I
B15: V331K: ASNp amylosucrase single mutant (protein, UniProt Q9ZEU2 1-636, looked up, variant V331K)
Amylosucrase: B1 Amylosucrase with P331K
B16: R446Q: ASNp amylosucrase single mutant, SEQ ID NO: 8 (protein, listed as Neisseria polysaccharea)
chain: SPNSQYLKTRILDIYTPEQRAGIEKSEDWRQFSRRMDTHFPKLMNELDSVYGNNEALLPMLEMLLAQAWQSYSQRNSSLKDIDIARENNPDWILSNKQVGGVCYVDLFAGDLKGLKDKIPYFQELGLTYLHLMPLFKCPEGKSDGGYAVSSYRDVNPALGTIGDLREVIAALHEAGISAVVDFIFNHTSNEHEWAQRCAAGDPLFDNFYYIFPDRRMPDQYDRTLREIFPDQHPGGFSQLEDGRWVWTTFNSFQWDLNYSNPWVFRAMAGEMLFLANLGVDILRMDAVAFIWKQMGTSCENLPQAHALIRAFNAVMRIAAPAVFFKSEAIVHPDQVVQYIGQDECQIGYNPLQMALLWNTLATREVNLLHQALTYRHNLPEHTAWVNYVRSHDDIGWTFADEDAAYLGISGYDHRQFLNRFFVNRFDGSFARGVPFQYNPSTGDCQVSGTAAALVGLAQDDPHAVDRIKLLYSIALSTGGLPLIYLGDEVGTLNDDDWSQDSNKSDDSRWAHRPRYNEALYAQRNDPSTAAGQIYQDLRHMIAVRQSNPRFDGGRLVTFNTNNKHIIGYIRNNALLAFGNFSEYPQTVTAHTLQAMPFKAHDLIGGKTVSLNQDLTLQPYQVMWLEIA

Test: naringenin glucosylation acceptor reaction with recombinant glucansucrases (microplate screening)
Format: biochemical
Conditions: sucrose 146 mM, naringenin 5 mM, 3% DMSO, 30° C., 24 h; HPLC-UV 340 nm peak areas
Procedure: (§1) The enzymatic extracts obtained are used to carry out the flavonoid glucosylation enzymatic screening reactions. The enzymatic activity of each centrifuged cell lysate is evaluated in the microplate format, by final weight after 30 minutes incubation in the presence of a final concentration of 146 mM of sucrose, by assaying the reducing sugars with 3,5-dinitrosalicylic acid (DNS). Finally, after dilution in ultrapure water, the absorbance is read at 540 nm.
(§2) The flavonoid acceptor reactions are then carried out in deep-well microplates, in a volume of 300 μl, at final concentrations of sucrose of 146 mM and of flavonoid of 2.5 mM (apigenin) or 5 mM (naringenin) (initially dissolved in 100% DMSO), and 140 μl of centrifuged cell lysate.
(§3) The final DMSO concentration in the reaction medium is 3% (v/v).
(§4) The incubation is carried out at 30° C. and at 700 rpm. After 24 hours, the enzymes are denatured at 95° C. for 15 minutes. These microplates are stored at −80° C. with a view to rapid evaluation of the flavonoid glucosylation by liquid-phase chromatography coupled to mass spectrometry (HPLC-MS or LC-MS).
(§5) With a view to their analyses by HPLC-MS, the extensively homogenized reaction media are diluted to 1/30th in DMSO. The separation of the flavonoids and of their glucosylated forms is carried out in reverse phase with a ProntoSlL Eurobond® 53×3.0 mm 120-3-C18-AQ column (porosity of 120 Å, particle size of 3 μm, C18 grafting, Bischoff Chromatography, Germany).
(§6) The flavonoid glucosylation efficiency was determined from the following formula: Glucosylation efficiency=(Σ(area of the peak of glucosylated flavonoid(s)))/(Σ(area of the peak of glucosylated flavonoid(s))+area of the peak of residual aglycone flavonoid)×100
The flavonoid glucosylation efficiency was determined from the formula set out in example 2. The flavonoid glucosylation efficiencies, expressed as a percentage, were calculated from the areas of the peaks of the various products analyzed, as described in example 1, by HPLC with a UV detector (λ340 nm), after 24 h of reaction.

Row | Molecule | naringenin glucosylation efficiency [%]
1 | B1 | 0.0
2 | B2 | 6.8
3 | B3 | 0.0
4 | B4 | 6.7
5 | B5 | 7.2
6 | B6 | 0.0
7 | B7 | 5.4
8 | B8 | 3.8
9 | B9 | 0.0
10 | B10 | 0.0
11 | B11 | 0.0
12 | B12 | 6.9
13 | B13 | 0.0
14 | B14 | 0.0
15 | B15 | 0.0
16 | B16 | 0.0

Test: apigenin glucosylation acceptor reaction with recombinant glucansucrases (microplate screening)
Format: biochemical
Conditions: sucrose 146 mM, apigenin 2.5 mM, 3% DMSO, 30° C., 24 h; HPLC-UV 340 nm peak areas
Procedure: as §1, §2, §3, §4, §5, §6
The flavonoid glucosylation efficiencies, expressed as a percentage, were calculated from the areas of the peaks of the various products analyzed, as described in example 1, by HPLC with a UV detector (340 nm) after 24 h of reaction.

Row | Molecule | apigenin glucosylation efficiency [%]
17 | B1 | 0.0
18 | B2 | 0.2
19 | B3 | 0.2
20 | B4 | 0.4
21 | B5 | 0.0
22 | B6 | 0.2
23 | B7 | 1.2
24 | B8 | 0.4
25 | B9 | 0.9
26 | B10 | 0.7
27 | B11 | 0.4
28 | B12 | 1.9
29 | B13 | 0.1
30 | B14 | 0.3
31 | B15 | 0.2
32 | B16 | 1.9
